# Experimental data from publication PMC12416549 (2024).
# T1: TNFR1 (Homo sapiens, UniProt P19438)
# T1 chain: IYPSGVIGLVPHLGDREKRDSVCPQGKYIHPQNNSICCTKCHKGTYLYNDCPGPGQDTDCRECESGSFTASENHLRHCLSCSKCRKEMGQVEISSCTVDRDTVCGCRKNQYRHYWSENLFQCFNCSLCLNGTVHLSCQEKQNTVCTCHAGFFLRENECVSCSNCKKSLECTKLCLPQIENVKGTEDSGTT
# Biological target: T1, TNFR1
# Test: yeast display SC50
row,Binder,apparent Kd (screen)
1,Q48P (designed binder) MTLQELLREEALRRAEAEAFRYALELLAEKFPEQKEYLLDLAEEIESPIRSLSGVDVEDVRKFLDKEWAWVKELLAEHPAELAEVEAARAARLAELRAEVEAKVAA,3.99 nM
2,E58Q (designed binder) MTLQELLREEALRRAEAEAFRYALELLAEKFPEQKEYLLDLAEEIESQIRSLSGVDVQDVRKFLDKEWAWVKELLAEHPAELAEVEAARAARLAELRAEVEAKVAA,0.653 nM
3,E9Y (designed binder) MTLQELLRYEALRRAEAEAFRYALELLAEKFPEQKEYLLDLAEEIESQIRSLSGVDVEDVRKFLDKEWAWVKELLAEHPAELAEVEAARAARLAELRAEVEAKVAA,1.05 nM
4,F31V (designed binder) MTLQELLREEALRRAEAEAFRYALELLAEKVPEQKEYLLDLAEEIESQIRSLSGVDVEDVRKFLDKEWAWVKELLAEHPAELAEVEAARAARLAELRAEVEAKVAA,0.653 nM
5,Q34R (designed binder) MTLQELLREEALRRAEAEAFRYALELLAEKFPERKEYLLDLAEEIESQIRSLSGVDVEDVRKFLDKEWAWVKELLAEHPAELAEVEAARAARLAELRAEVEAKVAA,0.718 nM
6,S53N (designed binder) MTLQELLREEALRRAEAEAFRYALELLAEKFPEQKEYLLDLAEEIESQIRSLNGVDVEDVRKFLDKEWAWVKELLAEHPAELAEVEAARAARLAELRAEVEAKVAA,0.653 nM
7,T2I (designed binder) MILQELLREEALRRAEAEAFRYALELLAEKFPEQKEYLLDLAEEIESQIRSLSGVDVEDVRKFLDKEWAWVKELLAEHPAELAEVEAARAARLAELRAEVEAKVAA,0.653 nM
8,V57R (designed binder) MTLQELLREEALRRAEAEAFRYALELLAEKFPEQKEYLLDLAEEIESQIRSLSGVDREDVRKFLDKEWAWVKELLAEHPAELAEVEAARAARLAELRAEVEAKVAA,0.79 nM
9,K30P (designed binder) MTLQELLREEALRRAEAEAFRYALELLAEPFPEQKEYLLDLAEEIESQIRSLSGVDVEDVRKFLDKEWAWVKELLAEHPAELAEVEAARAARLAELRAEVEAKVAA,0.653 nM
10,E73R (designed binder) MTLQELLREEALRRAEAEAFRYALELLAEKFPEQKEYLLDLAEEIESQIRSLSGVDVEDVRKFLDKEWAWVKRLLAEHPAELAEVEAARAARLAELRAEVEAKVAA,0.539 nM
11,Q48F (designed binder) MTLQELLREEALRRAEAEAFRYALELLAEKFPEQKEYLLDLAEEIESFIRSLSGVDVEDVRKFLDKEWAWVKELLAEHPAELAEVEAARAARLAELRAEVEAKVAA,13.8 nM
12,E44W (designed binder) MTLQELLREEALRRAEAEAFRYALELLAEKFPEQKEYLLDLAEWIESQIRSLSGVDVEDVRKFLDKEWAWVKELLAEHPAELAEVEAARAARLAELRAEVEAKVAA,0.539 nM
13,T2C (designed binder) MCLQELLREEALRRAEAEAFRYALELLAEKFPEQKEYLLDLAEEIESQIRSLSGVDVEDVRKFLDKEWAWVKELLAEHPAELAEVEAARAARLAELRAEVEAKVAA,2.73 nM
14,T2H (designed binder) MHLQELLREEALRRAEAEAFRYALELLAEKFPEQKEYLLDLAEEIESQIRSLSGVDVEDVRKFLDKEWAWVKELLAEHPAELAEVEAARAARLAELRAEVEAKVAA,0.869 nM
15,Y37L (designed binder) MTLQELLREEALRRAEAEAFRYALELLAEKFPEQKELLLDLAEEIESQIRSLSGVDVEDVRKFLDKEWAWVKELLAEHPAELAEVEAARAARLAELRAEVEAKVAA,7.78 nM
16,Y22T (designed binder) MTLQELLREEALRRAEAEAFRTALELLAEKFPEQKEYLLDLAEEIESQIRSLSGVDVEDVRKFLDKEWAWVKELLAEHPAELAEVEAARAARLAELRAEVEAKVAA,0.49 nM
17,E46K (designed binder) MTLQELLREEALRRAEAEAFRYALELLAEKFPEQKEYLLDLAEEIKSQIRSLSGVDVEDVRKFLDKEWAWVKELLAEHPAELAEVEAARAARLAELRAEVEAKVAA,0.593 nM
18,E101A (designed binder) MTLQELLREEALRRAEAEAFRYALELLAEKFPEQKEYLLDLAEEIESQIRSLSGVDVEDVRKFLDKEWAWVKELLAEHPAELAEVEAARAARLAELRAEVAAKVAA,0.79 nM
19,L12K (designed binder) MTLQELLREEAKRRAEAEAFRYALELLAEKFPEQKEYLLDLAEEIESQIRSLSGVDVEDVRKFLDKEWAWVKELLAEHPAELAEVEAARAARLAELRAEVEAKVAA,0.539 nM
20,P32Y (designed binder) MTLQELLREEALRRAEAEAFRYALELLAEKFYEQKEYLLDLAEEIESQIRSLSGVDVEDVRKFLDKEWAWVKELLAEHPAELAEVEAARAARLAELRAEVEAKVAA,0.539 nM
21,A19S (designed binder) MTLQELLREEALRRAEAESFRYALELLAEKFPEQKEYLLDLAEEIESQIRSLSGVDVEDVRKFLDKEWAWVKELLAEHPAELAEVEAARAARLAELRAEVEAKVAA,0.653 nM
22,D65G (designed binder) MTLQELLREEALRRAEAEAFRYALELLAEKFPEQKEYLLDLAEEIESQIRSLSGVDVEDVRKFLGKEWAWVKELLAEHPAELAEVEAARAARLAELRAEVEAKVAA,0.593 nM

# Second part, the binder after the results:
row,apparent Kd (screen),Binder
1,0.49 nM,R21H (designed binder) MTLQELLREEALRRAEAEAFHYALELLAEKFPEQKEYLLDLAEEIESQIRSLSGVDVEDVRKFLDKEWAWVKELLAEHPAELAEVEAARAARLAELRAEVEAKVAA
2,0.79 nM,L26E (designed binder) MTLQELLREEALRRAEAEAFRYALEELAEKFPEQKEYLLDLAEEIESQIRSLSGVDVEDVRKFLDKEWAWVKELLAEHPAELAEVEAARAARLAELRAEVEAKVAA
3,2.25 nM,A42R (designed binder) MTLQELLREEALRRAEAEAFRYALELLAEKFPEQKEYLLDLREEIESQIRSLSGVDVEDVRKFLDKEWAWVKELLAEHPAELAEVEAARAARLAELRAEVEAKVAA
4,0.49 nM,S47Y (designed binder) MTLQELLREEALRRAEAEAFRYALELLAEKFPEQKEYLLDLAEEIEYQIRSLSGVDVEDVRKFLDKEWAWVKELLAEHPAELAEVEAARAARLAELRAEVEAKVAA
5,11.4 nM,R13P (designed binder) MTLQELLREEALPRAEAEAFRYALELLAEKFPEQKEYLLDLAEEIESQIRSLSGVDVEDVRKFLDKEWAWVKELLAEHPAELAEVEAARAARLAELRAEVEAKVAA
6,1.05 nM,V85H (designed binder) MTLQELLREEALRRAEAEAFRYALELLAEKFPEQKEYLLDLAEEIESQIRSLSGVDVEDVRKFLDKEWAWVKELLAEHPAELAEHEAARAARLAELRAEVEAKVAA
7,0.252 nM,D59P (designed binder) MTLQELLREEALRRAEAEAFRYALELLAEKFPEQKEYLLDLAEEIESQIRSLSGVDVEPVRKFLDKEWAWVKELLAEHPAELAEVEAARAARLAELRAEVEAKVAA
8,0.869 nM,R21G (designed binder) MTLQELLREEALRRAEAEAFGYALELLAEKFPEQKEYLLDLAEEIESQIRSLSGVDVEDVRKFLDKEWAWVKELLAEHPAELAEVEAARAARLAELRAEVEAKVAA
9,0.49 nM,E9Q (designed binder) MTLQELLRQEALRRAEAEAFRYALELLAEKFPEQKEYLLDLAEEIESQIRSLSGVDVEDVRKFLDKEWAWVKELLAEHPAELAEVEAARAARLAELRAEVEAKVAA
10,10.4 nM,A19Y (designed binder) MTLQELLREEALRRAEAEYFRYALELLAEKFPEQKEYLLDLAEEIESQIRSLSGVDVEDVRKFLDKEWAWVKELLAEHPAELAEVEAARAARLAELRAEVEAKVAA
11,1.05 nM,Q34C (designed binder) MTLQELLREEALRRAEAEAFRYALELLAEKFPECKEYLLDLAEEIESQIRSLSGVDVEDVRKFLDKEWAWVKELLAEHPAELAEVEAARAARLAELRAEVEAKVAA
12,0.446 nM,V85C (designed binder) MTLQELLREEALRRAEAEAFRYALELLAEKFPEQKEYLLDLAEEIESQIRSLSGVDVEDVRKFLDKEWAWVKELLAEHPAELAECEAARAARLAELRAEVEAKVAA
13,1.05 nM,A106K (designed binder) MTLQELLREEALRRAEAEAFRYALELLAEKFPEQKEYLLDLAEEIESQIRSLSGVDVEDVRKFLDKEWAWVKELLAEHPAELAEVEAARAARLAELRAEVEAKVAK
